# Measured values as given in US9206246B2, “Heparin/heparan sulfate-dependent inhibitors of activated protein C and uses thereof in treating hemophilic disorders” (Academia Sinica, priority 2012, dated 2015).
# Entries after “also recorded” stand apart in the source; their conditions may differ.
# Columns and labels:
# Assay type in all cases: biochemical
# [1] = system: APC in FVIII-deficient plasma; experiment: APTT-based APC resistance assay in FVIII-deficient plasma; details: 200 nM DrKIn-I, 40 nM APC, 2 μg/ml heparan sulfate
# Method: APTT-based clotting times were measured in normal, FVIII-deficient and FIX-deficient plasma containing 2 μg/ml heparan sulfate in the presence or absence of 40 nM APC and the indicated concentrations of DrKIn-I. Results shown are means±S.D. of at least three experiments.
# 50 μl of normal plasma, FVIII-deficient plasma or FIX-deficient plasma supplemented with 2 μg/ml heparan sulfate (four disaccharide units long) was exposed to APC (40 nM) and varying concentrations of DrKIn-I (50-200 nM). 50 μl of activated partial thromboplastin (APTT) reagent (HYPHEN Biomed) was added and incubated for 1 minute at 37° C. Finally, clotting was initiated by adding 50 μl of 20 mM CaCl2. Coagulation times, which reflect the activities of APC, were recorded on a coagulometer (Hemostasis Analyzer KC-1; Sigma Diagnostics).
# [2] = system: endogenously generated APC in normal plasma; experiment: Thrombin generation assay in normal plasma; details: 200 nM DrKIn-I, 100 nM TM, 2 μg/ml heparan sulfate
# Method: Thrombin generation in normal (A) and protein C-deficient (B) plasma. Experiments were performed in the presence of heparan sulfate (2 μg/ml). Solid lines represent thrombin generation in the presence of 100 nM thrombomodulin (TM) and varying concentrations of DrKIn-I (●, 0 nM; ▪, 40 nM; ▴, 80 nM; ◯, 200 nM). Dashed lines represent thrombin generation in the absence of TM and DrKIn-I.
# Briefly, 80 μl of either normal plasma, protein C-deficient plasma, FVIII-deficient plasma or FIX deficient plasma containing 2 μM corn trypsin inhibitor, 2 μg/ml heparan sulfate (four disaccharide units long), 30 μM DOPC/DOPS/DOPE (60:20:20) and 100 nM recombinant TM was incubated with 20 μl of 500-fold diluted TF solution (Innovin; Dade Behring) in the absence or presence of the indicated concentrations of DrKIn-I. Following incubation for 3 minutes at 37° C., thrombin generation was initiated by the dispensation of 20 μl of 2.5 mM fluorogenic substrate (Z-Gly-Gly-Arg-AMC.HCl) dissolved in 0.15 M NaCl, 60 mg/ml BSA and 100 mM CaCl2. Measurements were taken at 1 minute intervals on a SpectraMax M2^e Microplate Reader using an excitation wavelength of 360 nm and an emission wavelength of 460 nm. In some assays, experiments were performed in the absence of thrombomodulin. Results were evaluated using the Technothrombin TGA software (Technoclone).
# APC = APC (Homo sapiens, UniProt P04070); experiment: APC-mediated FVa inactivation assay (residual FVa activity, prothrombin time-based); design: purchased Haematologic Technologies
# Method: B: Dose-response curves of APC (10 nM) inhibition by DrKIn-I in the absence (◯) and presence (●) of 0.1 U/ml heparin. C: To determine the minimum concentration of heparin required for the potentiation APC inhibition, the activity of APC (20 nM) was measured after the addition of DrKIn-I (20 nM) and varying concentrations of heparin (0-1000 mU/ml). D: To assess the ability of heparan sulfate and the minimum length of heparan sulfate required to potentiate DrKIn-I-mediated APC inhibition, the amidolytic activity of APC was determined in the presence of DrKIn-I (20 nM) and different lengths of heparan sulfate chains (10 μg/ml each). E, Time course of FVa inactivation by APC (1 nM) was assessed in the absence (●) or presence (▪) of 5 nM DrKIn-I, or in the presence of 5 nM DrKIn-I supplemented with 0.1 U/ml heparin (▴), as described in “Materials and methods”. F, The effect of DrKIn-I (0-250 nM) and/or heparin (0.1 U/ml) on APC-mediated FVa inactivation was determined after 10 minutes of incubation at 37° C. with APC (5 nM). Results shown are means±SD of three experiments.
# In assays involving FVa, 20 nM purified FVa was incubated at 37° C. with a mixture containing 1 nM or 5 nM APC, 20 nM protein S, 20 μM DOPC/DOPS (75:25) and 5-250 nM DrKIn-I in the presence or absence of 0.1 U/ml heparin. At specific time intervals, 5 μl aliquots were removed and mixed with 50 μl of FV-deficient plasma. The residual FVa activities were quantified in a standard prothrombin time-based assay using a calibration curved obtained by adding variable amounts of FVa to FV-deficient plasma. All concentrations given were final concentrations.
# factor Xa (FXa) = molecular target: T1, factor Xa (FXa) (Homo sapiens, UniProt P00742); experiment: Selectivity profile, amidolytic activity of FXa
# T1 construct: factor Xa (FXa); purchased Haematologic Technologies
# Method: In each of these experiments, the molar ratio of protease active site to inhibitor was 1:1. The final concentrations of these proteases and their respective substrates were as follows: FXIIa (20 nM)/S-2302 (0.2 mM), FXIa (2.5 nM)/S-2366 (0.2 mM), FXa (10 nM)/S-2222 (1.3 mM), FIXa (200 nM)/Spectrozyme FIXa (1.3 mM), FVIIa (100 nM)/S-2288 (1.3 mM), thrombin (5 nM)/T-1637 (0.2 mM), kallikrein (5 nM)/S-2302 (0.2 mM), plasmin (20 nM)/S-2251 (0.2 mM), tPA (80 nM)/Spectrozyme tPA (0.2 mM), uPA (100 nM)/S-2288 (1.3 mM), APC (10 nM)/Spectrozyme PCa (0.2 mM) and trypsin (5 nM)/S-2222 (0.2 mM). Results shown are means±SD of at least three experiments.
# DrKIn-I, with or without heparin, was screened for its inhibitory activity against trypsin and also against serine proteases in the coagulation cascade (FXIIa, FXIa, FXa, FIXa, FVIIa, thrombin and kallikrein) and in the fibrinolytic system (plasmin, tPA and uPA). The amidolytic activities of these proteases were determined in the presence or absence of equimolar concentrations of DrKIn-I using their respective chromogenic substrates.
# Sequence of APC (P04070 212-450 limits assumed): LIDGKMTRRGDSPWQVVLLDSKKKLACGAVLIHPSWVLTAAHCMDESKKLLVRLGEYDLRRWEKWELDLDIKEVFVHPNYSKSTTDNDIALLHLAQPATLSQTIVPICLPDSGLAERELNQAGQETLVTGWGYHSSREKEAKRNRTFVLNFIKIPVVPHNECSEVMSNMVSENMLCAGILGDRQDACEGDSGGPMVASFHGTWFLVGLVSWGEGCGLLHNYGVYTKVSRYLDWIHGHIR
# Sequence of APC (P04070 43-197 limits assumed): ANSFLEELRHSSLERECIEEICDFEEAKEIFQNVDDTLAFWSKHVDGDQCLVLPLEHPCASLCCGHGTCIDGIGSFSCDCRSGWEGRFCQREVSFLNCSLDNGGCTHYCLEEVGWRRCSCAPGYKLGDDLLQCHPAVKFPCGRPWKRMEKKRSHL
# T1 sequence (P00742 235-488 limits assumed): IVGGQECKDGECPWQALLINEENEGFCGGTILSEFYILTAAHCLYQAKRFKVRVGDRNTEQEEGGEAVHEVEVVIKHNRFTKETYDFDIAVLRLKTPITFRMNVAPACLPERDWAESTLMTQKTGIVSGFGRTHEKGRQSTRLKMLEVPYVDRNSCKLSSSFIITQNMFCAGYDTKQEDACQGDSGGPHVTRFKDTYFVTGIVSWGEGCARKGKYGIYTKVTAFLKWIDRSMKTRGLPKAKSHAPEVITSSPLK
# T1 sequence (P00742 41-179 limits assumed): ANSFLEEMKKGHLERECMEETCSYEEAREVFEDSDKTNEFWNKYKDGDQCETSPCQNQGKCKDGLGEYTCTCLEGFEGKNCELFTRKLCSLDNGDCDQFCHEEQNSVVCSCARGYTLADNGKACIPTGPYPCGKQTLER
substance,measurement,setting,value
DrKIn-I (CGGNDNNFETRKKCRQTCGAPRKGRPT),clotting time,[1],almost completely restored the clotting time to that observed in the absence of APC
same,thrombin generation,[2],thrombin generation reached that observed in the absence of APC activity
same,FVa protected from inactivation,"APC; 5 nM DrKIn-I with 0.1 U/ml heparin, APC 1 nM, FVa 20 nM",100%
same,FVa protected from inactivation,"APC; 250 nM DrKIn-I (50-fold molar excess) without heparin, APC 5 nM, 10 minutes",less than 20%
same,effect on APC-mediated FVa degradation,"APC; without heparin (5 nM DrKIn-I, APC 1 nM, FVa 20 nM)",relatively no effect on APC activity; also recorded: negligible
same,inhibitory activity against factor Xa,factor Xa (FXa),no inhibitory activities
